The numbers were not newly measured in PMC6325607, which cites them from elsewhere.

In the series the test system is Cys149.

Broadly, the pKa is the negative logarithm of the acid dissociation constant. Take “Cytosolic glyceraldehyde-3-phosphate dehydrogenase (GAPDH) (Arabidopsis thaliana)”: the pKa is reported as 5.65.
